How the values were obtained:
β-catenin [1] = target: T1, β-catenin (Cricetulus griseus, UniProt G3H996); assay: β-catenin level in CHO cells by Western blot; type: cell-based; details: stably transfected CHO cells, FIG. 2A
T1 construct: resulting from the stabilization of the endogenous β-catenin by the transfected cadherin derivatives; endogenous in cells; host or cells: CHO cells, stably or transiently transfected with cadherin derivatives only
T1 sequence (G3H996 1-781): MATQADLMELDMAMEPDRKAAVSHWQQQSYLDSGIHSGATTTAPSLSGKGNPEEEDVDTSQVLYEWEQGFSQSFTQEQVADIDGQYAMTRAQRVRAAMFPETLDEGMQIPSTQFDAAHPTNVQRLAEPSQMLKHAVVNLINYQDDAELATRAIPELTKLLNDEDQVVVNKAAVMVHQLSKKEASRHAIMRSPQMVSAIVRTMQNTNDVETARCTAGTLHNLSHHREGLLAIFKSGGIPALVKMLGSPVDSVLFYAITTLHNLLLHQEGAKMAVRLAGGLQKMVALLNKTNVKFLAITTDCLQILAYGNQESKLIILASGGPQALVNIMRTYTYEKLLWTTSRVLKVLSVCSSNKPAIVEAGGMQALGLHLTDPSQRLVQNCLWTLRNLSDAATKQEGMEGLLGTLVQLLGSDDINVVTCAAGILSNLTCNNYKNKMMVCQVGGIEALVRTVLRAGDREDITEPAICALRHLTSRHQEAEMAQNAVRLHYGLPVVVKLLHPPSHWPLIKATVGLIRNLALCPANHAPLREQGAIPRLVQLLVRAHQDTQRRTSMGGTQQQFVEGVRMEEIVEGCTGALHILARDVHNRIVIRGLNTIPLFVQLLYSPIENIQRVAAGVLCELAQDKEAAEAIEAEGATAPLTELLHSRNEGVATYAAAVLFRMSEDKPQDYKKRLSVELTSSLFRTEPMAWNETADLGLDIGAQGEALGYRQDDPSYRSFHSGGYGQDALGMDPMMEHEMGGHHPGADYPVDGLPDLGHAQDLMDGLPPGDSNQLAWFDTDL
Description: Cell culture and transfections: CHO and SW480 human colon carcinoma cells were cultured in Dulbecco's modified Eagle's medium containing 10% fetal calf serum in an 8% CO2 incubator at 37° C. Transfections were performed using Lipofectamine (Gibco, BRL, USA) according to the manufacturer's instructions. Stably transfected CHO clones were generated by co-transfection with a plasmid encoding the puromycin resistance gene. Two days after transfection, cells were replated in the presence of 10 μg/ml puromycin (Sigma, Holon, Israel). Stable clones were isolated 2 weeks later and tested for the expression of the transgene by Western blot analysis.
(§1) Immunoblotting and immunoprecipitation: The following antibodies were used: polyclonal pan-cadherin or monoclonal anti cadherin (CH-19) and polyclonal anti β-catenin antibodies were from Sigma (Holon, Israel). Monoclonal anti β-catenin, 5H10 (from M. Wheelock), anti IL2Rα (from UBI), anti flag (M2, from IBI), anti HA (clone 12CA5, from Boehringer Mannheim, Germany), anti GFP (polyclonal, from Clontech, Palo Alto, Calif.), anti LEF-1 (polyclonal, kindly provided by Dr. R. Grosschedl). […]

β-catenin [2] = target: T1, β-catenin; assay: Co-immunoprecipitation of cadherin derivatives with β-catenin in CHO cells; type: binding; details: stably transfected CHO cells, FIG. 2B
From the text: Immunoblotting and immunoprecipitation: The following antibodies were used: polyclonal pan-cadherin or monoclonal anti cadherin (CH-19) and polyclonal anti β-catenin antibodies were from Sigma (Holon, Israel). Monoclonal anti β-catenin, 5H10 (from M. Wheelock), anti IL2Rα (from UBI), anti flag (M2, from IBI), anti HA (clone 12CA5, from Boehringer Mannheim, Germany), anti GFP (polyclonal, from Clontech, Palo Alto, Calif.), anti LEF-1 (polyclonal, kindly provided by Dr. R. Grosschedl). Secondary antibodies for Western blotting were goat anti rabbit or anti mouse conjugated to HRP (Amersham, Buckinghampshire, UK), and for immunofluorescence analysis the secondary antibodies were FITC-goat anti mouse (Cappel, USA) or rhodamine-anti rabbit antibodies (from Jackson Immuno-Research, West Grove, Pa.). Cells were harvested in Laemmli's sample buffer and equal amounts of total cell protein from the different clones, or from transient transfections, were separated by SDS-PAGE, electrotransferred to nitrocellulose and incubated with the different antibodies. For immunoprecipitation, cells were harvested in IP buffer (20 mM Tris pH 8.0, 1% Triton X-100, 140 mM NaCl, 10% glycerol, 1 mM EGTA, 1.5 mM MgCl2, 1 mM DTT, 1 mM sodium vanadate, and 50 μg/ml PMSF). […]

LEF-1-β-catenin complex = target: T2, LEF-1-β-catenin complex (Mus musculus, UniProt Q02248); assay: Competition with LEF-1 for β-catenin binding (HA-LEF-1 immunoprecipitation, CHO cells); details: increasing amounts of N-cadherin tail cDNA, FIG. 8
T2 construct: expressed in transfected cells; host or cells: CHO cells, transient transfection
T2 sequence (Q02248 1-781): T1 sequence (G3H996 1-781)
From the text: as §1, with “Grosschedl). Secondary antibodies for Western blotting were goat anti rabbit or anti mouse conjugated to HRP (Amersham, Buckinghampshire, UK), and for immunofluorescence analysis the secondary antibodies were FITC-goat anti mouse (Cappel, USA) or rhodamine-anti rabbit antibodies (from Jackson Immuno-Research, West Grove, Pa.).” for “Grosschedl).”
The N-cadherin tail inhibits the formation of a LEF-1-β-catenin complex: The inhibition by N-cadherin of β-catenin driven-transactivation could result from either displacement of LEF-1 binding to β-catenin by N-cadherin, or by formation of a ternary complex (cadherin-LEF-1-β-catenin) that has no transactivation potential. […] After transfection, LEF-1 was immunoprecipitated with anti HA antibody and the associated β-catenin was detected by Western blot analysis (FIG. 8A). […]

CHO cells = assay: Immunofluorescence localization in CHO cells; type: cell-based; details: stably transfected CHO cells, FIG. 4
From the text: Immunofluorescence microscopy: Cells cultured on glass coverslips were fixed with 3% paraformaldehyde in phosphate-buffered saline (PBS) and permeabilized with 0.5% Triton X-100. CHO cells were immunofluorescently labeled as described (Levenberg S. et al. (1998) Long-range and selective autoregulation of cell-cell and cell-matrix adhesions by cadherin or integrin ligands. J. Cell Sci. 111:347-357). Nuclei were visualized using DAPI and the fluorescence was examined using a Zeiss Axiophot microscope and a x100/1.3 Planapochromat objective.

effect on β-catenin levels (β-catenin [1]): increase in β-catenin levels | interaction with β-catenin by co-immunoprecipitation (β-catenin [2]): direct interaction
B1: N-cadherin tail: Cytoplasmic domain of chicken N-cadherin tagged with a Flag epitope (protein)
chain: MKRRDKERQAKQLLIDPEDDVRDNILKYDEEGGGEEDQDYDLSQLQQPDTVEPDAIKPVGIRRLDERPIHAEPQYPVRSAAPHPGDIGDFINEGLKAADNDPTAPPYDSLLVFDYEGSGSTAGSLSSLNSSSSGGEQDYDYLNDWGPRFKKLADMYGGGDD
modifications: left off: small tags and cut ends
β-catenin binding to LEF-1 (LEF-1-β-catenin complex): inhibited β-catenin binding to LEF-1 in a dose dependent manner | subcellular localization of cadherin derivative and β-catenin (CHO cells): mainly localized in the nucleus
